System: Abca4 (−/−) mice
Assay: A2E concentration in eyes of Abca4 (−/−) mice after intravitreal injection, HPLCMSMS
Format: in vivo
Settings: redox active and chelating protein; intravitreal 2 μl of 20 mg/ml; one week after injection
Text: […] […] The left eye was not treated and maintained as a control. Untreated eyes of age-matched mice lacking the Abca4 transporter were an additional control.
The concentration in each treated eye was then expressed as a percentage of the average concentration in all untreated eyes in the mice of the same age.
The left eye was not treated and maintained as a control. Untreated eyes of age-matched mice lacking the Abca4 transporter were an additional control.
The left eye was not treated and maintained as a control. Untreated eyes of age-matched mice lacking the Abca4 transporter were an additional control. […] Tryptophan is capable of absorbing and re-radiating light energy, as is riboflavin.
Water solutions were diluted 1:3 with acetonitrile and then sealed in vials for injection. 6 μL of the water acetonitrile solutions were injected onto a 2×50 mm Phenyl derived HPLC column (3 μm) and eluted with a gradient from 20% acetonitrile to 100% acetonitrile over 4 minutes at a flow rate of 500 μL/minute.

B1: Lactoferrin: protein capable of binding iron with high affinity (protein, UniProt P02788 20-710, looked up)
Lactotransferrin: GRRRSVQWCAVSQPEATKCFQWQRNMRKVRGPPVSCIKRDSPIQCIQAIAENRADAVTLDGGFIYEAGLAPYKLRPVAAEVYGTERQPRTHYYAVAVVKKGGSFQLNELQGLKSCHTGLRRTAGWNVPIGTLRPFLNWTGPPEPIEAAVARFFSASCVPGADKGQFPNLCRLCAGTGENKCAFSSQEPYFSYSGAFKCLRDGAGDVAFIRESTVFEDLSDEAERDEYELLCPDNTRKPVDKFKDCHLARVPSHAVVARSVNGKEDAIWNLLRQAQEKFGKDKSPKFQLFGSPSGQKDLLFKDSAIGFSRVPPRIDSGLYLGSGYFTAIQNLRKSEEEVAARRARVVWCAVGEQELRKCNQWSGLSEGSVTCSSASTTEDCIALVLKGEADAMSLDGGYVYTAGKCGLVPVLAENYKSQQSSDPDPNCVDRPVEGYLAVAVVRRSDTSLTWNSVKGKKSCHTAVDRTAGWNIPMGLLFNQTGSCKFDEYFSQSCAPGSDPRSNLCALCIGDEQGENKCVPNSNERYYGYTGAFRCLAENAGDVAFVKDVTVLQNTDGNNNEAWAKDLKLADFALLCLDGKRKPVTEARSCHLAMAPNHAVVSRMDKVERLKQVLLHQQAKFGRNGSDCPDKFCLFQSETKNLLFNDNTECLARLHGKTTYEKYLGPQYVAGITNLKKCSTSPLLEACEFLRK
  % of A2E relative to age matched untreated: 63%
  Concentration A2E (μM) in the treated eye: 20 µM

From patent US10495630B2, “Methods for the determination of compounds or compositions for the treatment of lipofuscin related diseases and compounds or compositions” (KATAIRO GMBH, priority 2014, dated 2019)
